Results reported in patent US20240189443A1, “PD-L1 AND TLR7 DOUBLE-TARGETING NANOBODY COUPLING DRUG AND USE THEREOF IN ANTI-TUMOR” (SHANGHAI INSTITUTE OF MATERIA MEDICA, CHINESE ACADEMY OF …, priority 2021, published 2024).
Where a chain is given by its changes, count along the chain named.

B1: h_Nb4: anti-human PD-L1 nanobody, VHH SEQ ID NO: 29 (protein)
VHH: DVQLQESGGGLVQAGGSLRLSCAAPSRMFSGYTMGWYRQAPGKQRELVAQIANGGFTDYIDSVKGRFSISRDTVLNMMYLQMNSLKPEDTAVYYCNLVLVNGIPTRNWGQGTQVTVSS
modifications: h_Nb4 Amino acid sequence of VHH
B2: h_Nb6: anti-human PD-L1 nanobody, VHH SEQ ID NO: 37 (protein)
VHH: DVQLQESGGGLAQPGGSLRLSCAASGFTFSSYAMSWARQAPGKGLEWVAGIYRGGSDTYYADSVKGRFTISRDNTKNTLYLQMNSLKPEDTALYYCIQGWGLGYANYDYWGQGTQVTVSS
modifications: h_Nb6 Amino acid sequence of VHH
B3: h_Nb5: anti-human PD-L1 nanobody, VHH SEQ ID NO: 33 (protein)
VHH: DVQLQESGGGAVQSGESLRLSCAASGRDLMFYDVAWFRQAPGKEREGVSYIRSSGTLTKYADSVKGRFTISRDNDKNTVSLQMNSLNPEDTAKYYCAARLQSATSHSDLREDEFNSWGQGTQVTVSS
modifications: h_Nb5 Amino acid sequence of VHH
B4: anti-human PD-L1 nanobody h_Nb1 (Fc fusion)
chain: DVQLQESGGGLVQPGGSLRLSCAASGFTFSSYAMSWVRQAPGKGLEWVSDINSGGDNTDYADSVKGRFTISRDNAKNTLYLQMNSLKPEDTAVYYCARGPKLCFSSWGQGTQVTVSS
notes: Cloned into pFUSE-mIgG2b-Fc and pFUSE-hIgG1-Fc; not shown: Fc of human IgG1 from vector pFUSE-hIgG1-Fc
B5: anti-human PD-L1 nanobody h_Nb9 (Fc fusion)
chain: DVQLQESGGGLVQPGGSLRLSCASSGSIFGLGVKGWYRQPPGNQREMVAQIISGGRISYADSVKGRFTISRDNAKNTVYLQMNSLKPEDTAVYYCNAWGPGQRNYWGRGTQVTVSS
notes: not shown: Fc of human IgG1 from vector pFUSE-hIgG1-Fc
B6: anti-human PD-L1 nanobody h_Nb13 (Fc fusion)
chain: DVQLQESGGGLVQPGGSLRLSCAASGSIFSINAMGWYRQAPGKSRELVAAITSGGSTNYADSVKGRFTISRDTAKNTVYLLMNSLEPEDTAVYYCNVERRRPPHYLSEYDFDWGQGTQVTVSS
notes: as for B5
B7: anti-human PD-L1 nanobody h_Nb26 (Fc fusion)
chain: B6 chain with S25P, S30R, S44Q, K64Q, T73N, L81Q, E86K, L106Y, E108D
notes: as for B5
B8: anti-human PD-L1 nanobody h_Nb4 (Fc fusion)
chain: B1 VHH
notes: as for B5
B9: anti-human PD-L1 nanobody h_Nb6 (Fc fusion)
chain: B2 VHH
notes: as for B5
B10: anti-human PD-L1 nanobody h_Nb2 (Fc fusion)
chain: DVQLQESGGGLVQPGGSLRLSCAASGFTFGDRWMYWLRQAPGKGLEWVSSINPAGRSTYYADSVKGRFTISRDNAKNTLYLQMNSLKSEDTAVYYCTKDPGGYQKGQGTQVTVSS
notes: as for B5
B11: anti-human PD-L1 nanobody h_Nb12 (Fc fusion)
chain: DVQLQESGGGLVQAGGSLRLSCAASGRTFSSRAMGWFRQAPGKEREFVAAISGSGRNTYYADSVKGRFTISRDNAKNSVNLQMNSLKPEDTAVYYCNAAGGGITIATMTQRTQYDYWGQGTQVTVSS
notes: as for B5
B12: anti-human PD-L1 nanobody h_Nb5 (Fc fusion)
chain: B3 VHH
notes: as for B5
B13: h_Nb2_P100R (VHH)
VHH: B10 chain with P100R
notes: also called 115

biological target: T1, HEK293T/hPD-L1 (Homo sapiens, UniProt Q9NZQ7); experiment: Human PD-L1 binding activity assay of candidate anti-human PD-L1 nanobodies (flow cytometry); settings: nanobody 10 μg/mL
T1 construct: expressed in transfected cells; host or cells: HEK293T
Description: (§1) The cell strain HEK293T/hPD-L1 was digested, and centrifugationwas performed to remove the supernatant; the cells were washed one time with PBS and the cell density was adjusted to 2.5×10^6 cells/mL; each cell sample was added to a 100 μL cell suspension, that is, a 2.5×10^5 cell/sample was comprised; different anti-human PD-L1 candidate nanobodies (the concentration is 10 μg/mL) were respectively added to the samples; incubating for 20 min at 4° C.; centrifuging, removing supernatant, and the cells were washing once with PBS; using diluted antibody anti-human IgG Fc (FITC) as secondary antibody, and the cells were re-suspended; incubating at 4° C. for 20 min; centrifuging, removing supernatant, the cells were washing twice with PBS, and transferred to a flow tube; and was performed on-machine detection by using a flow cytometer to obtain the binding activity of the candidate nanobody and human PD-L1, as shown in FIG. 13.

T1 sequence (Q9NZQ7 19-290): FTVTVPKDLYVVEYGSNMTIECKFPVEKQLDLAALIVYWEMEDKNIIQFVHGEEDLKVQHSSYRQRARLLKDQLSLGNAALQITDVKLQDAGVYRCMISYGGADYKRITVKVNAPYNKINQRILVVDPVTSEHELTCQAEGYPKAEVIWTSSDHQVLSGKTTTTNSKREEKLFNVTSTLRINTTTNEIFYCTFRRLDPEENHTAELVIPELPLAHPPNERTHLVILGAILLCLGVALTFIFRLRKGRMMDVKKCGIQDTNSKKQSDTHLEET

| Binding activity with human PD-L1 | Molecule |
| --- | --- |
| good binding activity | B1 |
| good binding activity | B2 |
| good binding activity | B3 |

biological target: T2, human PD-L1 on cell strain HEK293T/hPD-L1 (human, UniProt Q9NZQ7 19-290); experiment: flow cytometry on HEK293T/hPD-L1, 10 µg/mL, anti-human IgG Fc (FITC); settings: not given
T2 construct: whole, on cells
Description: as §1, with “2.5×10⁶” for “2.5×10^6”, “2.5×10⁵” for “2.5×10^5”

T2 sequence (Q9NZQ7 19-290): as above

| binding result | Molecule |
| --- | --- |
| binds | B4 |
| binds | B5 |
| binds | B6 |
| binds | B7 |
| binds | B8 |
| binds | B9 |
| binds | B10 |
| binds | B11 |
| binds | B12 |

biological target: PD-L1 (human PD-L1 protein of the ELISA of Example 16) (human, UniProt Q9NZQ7 19-238, limits assumed); experiment: ELISA; affinity relative to original antibody h_Nb2 VHH (SEQ ID NO.25); settings: not given
Sequence (Q9NZQ7 19-238 limits assumed): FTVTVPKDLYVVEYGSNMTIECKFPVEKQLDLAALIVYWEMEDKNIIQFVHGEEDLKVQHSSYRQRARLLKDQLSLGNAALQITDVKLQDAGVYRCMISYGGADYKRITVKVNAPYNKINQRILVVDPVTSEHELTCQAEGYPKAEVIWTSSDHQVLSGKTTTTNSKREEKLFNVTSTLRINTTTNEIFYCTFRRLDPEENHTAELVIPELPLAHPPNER

| Increased relative affinity [relative] | Molecule |
| --- | --- |
| 7.21 | B13 |
